{"source": "the supplement of paper PMC10567573", "parents": {"B1": {"name": "ADD1 (parent)", "chain": "LRHSFQKQQREKTRWLNSGRGDEA"}}}
{"variants_of": "B1", "experiment": "protein stability index of a GFP-peptide fusion (GPS, HEK-293T) (PSI 1-6); higher = more stable", "conditions": "c terminus: a fixed tail appended"}
{"variant": "LRHSFQKQMREKTRWLNSGRGDEA", "protein stability index": 3.84}
{"variant": "LRHSFQKQSREKTRWLNSGRGDEA", "protein stability index": 3.64}
{"variant": "LRHSFQKQVREKTRWLNSGRGDEA", "protein stability index": 3.35}
{"variant": "LRHSFQKQQREKTRWRNSGRGDEA", "protein stability index": 4.03}
{"variant": "LRHSFQKQQREKTRWFNSGRGDEA", "protein stability index": 3.28}
{"variant": "LRHSFQKQQREKTRWCNSGRGDEA", "protein stability index": 4.06}
{"variant": "LRHSFQKQQREKTRWKNSGRGDEA", "protein stability index": 4.22}
{"variant": "LRHSFQKQQREKTRWNNSGRGDEA", "protein stability index": 3.94}
{"variant": "LRHSFQKQQREKTRWANSGRGDEA", "protein stability index": 3.66}
{"variant": "LRHSFQKQQREKTRWMNSGRGDEA", "protein stability index": 3.88}
{"variant": "LRHSFQKQQREKTRWDNSGRGDEA", "protein stability index": 4.69}
{"variant": "LRHSFQKQQREKTRWENSGRGDEA", "protein stability index": 4.72}
{"variant": "LRHSFQKQQREKTRWHNSGRGDEA", "protein stability index": 3.42}
{"variant": "LRHSFQKQQREKTRWQNSGRGDEA", "protein stability index": 4.01}
{"variant": "LRHSFQKQQREKTRWSNSGRGDEA", "protein stability index": 4.22}
{"variant": "LRHSFQKQQREKTRWPNSGRGDEA", "protein stability index": 4.57}
{"variant": "LRHSFQKQQREKTRWGNSGRGDEA", "protein stability index": 4}
{"variant": "LRHSFQKQQREKTRWINSGRGDEA", "protein stability index": 3.67}
{"variant": "LRHSFQKQQRQKTRWLNSGRGDEA", "protein stability index": 2.87}
{"variant": "LRHSFQKQQRMKTRWLNSGRGDEA", "protein stability index": 2.26}
{"variant": "LRHSFQKQQRHKTRWLNSGRGDEA", "protein stability index": 3.27}
{"variant": "LRHSFQKQQRSKTRWLNSGRGDEA", "protein stability index": 3.13}
{"variant": "LRHSFQKQQRGKTRWLNSGRGDEA", "protein stability index": 3.27}
{"variant": "LRHSFQKQQRCKTRWLNSGRGDEA", "protein stability index": 1.93}
{"variant": "LRHSFQKQQRDKTRWLNSGRGDEA", "protein stability index": 4.47}
{"variant": "LRHSFQKQQRYKTRWLNSGRGDEA", "protein stability index": 2.36}
{"variant": "LRHSFQKQQRNKTRWLNSGRGDEA", "protein stability index": 2.57}
{"variant": "LRHSFQKQQRVKTRWLNSGRGDEA", "protein stability index": 2.88}
{"variant": "LRHSFQKQQRWKTRWLNSGRGDEA", "protein stability index": 2.56}
{"variant": "LRHSFQKQQRTKTRWLNSGRGDEA", "protein stability index": 3.11}
{"variant": "LRHSFQKQQRAKTRWLNSGRGDEA", "protein stability index": 3.41}
{"variant": "LRHSFQKQQRRKTRWLNSGRGDEA", "protein stability index": 3.65}
{"variant": "LRHSFQKQQRLKTRWLNSGRGDEA", "protein stability index": 2.28}
{"variant": "LRHSFQKQQRFKTRWLNSGRGDEA", "protein stability index": 2.24}
{"variant": "LRHSFQKQQRIKTRWLNSGRGDEA", "protein stability index": 2.21}
{"variant": "LRHSFQKQQRKKTRWLNSGRGDEA", "protein stability index": 3.17}
{"variant": "LRHSFQKQQRPKTRWLNSGRGDEA", "protein stability index": 3.91}
{"variant": "LRHSFQWQQREKTRWLNSGRGDEA", "protein stability index": 3.08}
{"variant": "LRHSFQMQQREKTRWLNSGRGDEA", "protein stability index": 3.22}
{"variant": "LRHSFQSQQREKTRWLNSGRGDEA", "protein stability index": 4.24}
{"variant": "LRHSFQCQQREKTRWLNSGRGDEA", "protein stability index": 1.8}
{"variant": "LRHSFQEQQREKTRWLNSGRGDEA", "protein stability index": 4.33}
{"variant": "LRHSFQYQQREKTRWLNSGRGDEA", "protein stability index": 3.51}
{"variant": "LRHSFQFQQREKTRWLNSGRGDEA", "protein stability index": 3.63}
{"variant": "LRHSFQDQQREKTRWLNSGRGDEA", "protein stability index": 3.87}
{"variant": "LRHSFQNQQREKTRWLNSGRGDEA", "protein stability index": 4.21}
{"variant": "LRHSFQVQQREKTRWLNSGRGDEA", "protein stability index": 3.38}
{"variant": "LRHSFQAQQREKTRWLNSGRGDEA", "protein stability index": 3.95}
{"variant": "LRHSFQQQQREKTRWLNSGRGDEA", "protein stability index": 4.27}
{"variant": "LRHSFQPQQREKTRWLNSGRGDEA", "protein stability index": 3.86}
{"variant": "LRHSFQLQQREKTRWLNSGRGDEA", "protein stability index": 3.89}
{"variant": "LRHSFQTQQREKTRWLNSGRGDEA", "protein stability index": 3.67}
{"variant": "LRHSFQGQQREKTRWLNSGRGDEA", "protein stability index": 4.57}
{"variant": "LRHSFQIQQREKTRWLNSGRGDEA", "protein stability index": 3.1}
{"variant": "LRHSFQRQQREKTRWLNSGRGDEA", "protein stability index": 3.01}
{"variant": "LRHSFQHQQREKTRWLNSGRGDEA", "protein stability index": 3.53}
{"variant": "LRHSFQKQQREKRRWLNSGRGDEA", "protein stability index": 3.83}
{"variant": "LRHSFQKQQREKSRWLNSGRGDEA", "protein stability index": 3.36}
{"variant": "LRHSFQKQQREKIRWLNSGRGDEA", "protein stability index": 4.01}
{"variant": "LRHSFQKQQREKGRWLNSGRGDEA", "protein stability index": 4.07}
{"variant": "LRHSFQKQQREKPRWLNSGRGDEA", "protein stability index": 3.52}
{"variant": "LRHSFQKQQREKCRWLNSGRGDEA", "protein stability index": 3.6}
{"variant": "LRHSFQKQQREKVRWLNSGRGDEA", "protein stability index": 3.26}
{"variant": "LRHSFQKQQREKMRWLNSGRGDEA", "protein stability index": 3.25}
{"variant": "LRHSFQKQQREKFRWLNSGRGDEA", "protein stability index": 3.29}
{"variant": "LRHSFQKQQREKERWLNSGRGDEA", "protein stability index": 4.27}
{"variant": "LRHSFQKQQREKDRWLNSGRGDEA", "protein stability index": 4.12}
{"variant": "LRHSFQKQQREKHRWLNSGRGDEA", "protein stability index": 3.9}
{"variant": "LRHSFQKQQREKNRWLNSGRGDEA", "protein stability index": 4.27}
{"variant": "LRHSFQKQQREKKRWLNSGRGDEA", "protein stability index": 3.91}
{"variant": "LRHSFQKQQREKQRWLNSGRGDEA", "protein stability index": 3.2}
{"variant": "LRHSFQKQQREKWRWLNSGRGDEA", "protein stability index": 2.58}
{"variant": "LRHSFQKQQREKARWLNSGRGDEA", "protein stability index": 3.53}
{"variant": "LRHSFQKQQREKYRWLNSGRGDEA", "protein stability index": 2.93}
{"variant": "LRHSFQKQQREKLRWLNSGRGDEA", "protein stability index": 3.54}
{"variant": "LRHSFQKLQREKTRWLNSGRGDEA", "protein stability index": 3.05}
{"variant": "LRHSFQKGQREKTRWLNSGRGDEA", "protein stability index": 3.52}
{"variant": "LRHSFQKYQREKTRWLNSGRGDEA", "protein stability index": 2.71}
{"variant": "LRHSFQKVQREKTRWLNSGRGDEA", "protein stability index": 3.48}
{"variant": "LRHSFQKPQREKTRWLNSGRGDEA", "protein stability index": 4.13}
{"variant": "LRHSFQKDQREKTRWLNSGRGDEA", "protein stability index": 3.87}
{"variant": "LRHSFQKHQREKTRWLNSGRGDEA", "protein stability index": 3.41}
{"variant": "LRHSFQKFQREKTRWLNSGRGDEA", "protein stability index": 2.73}
{"variant": "LRHSFQKEQREKTRWLNSGRGDEA", "protein stability index": 3.83}
{"variant": "LRHSFQKNQREKTRWLNSGRGDEA", "protein stability index": 3.15}
{"variant": "LRHSFQKAQREKTRWLNSGRGDEA", "protein stability index": 4}
{"variant": "LRHSFQKTQREKTRWLNSGRGDEA", "protein stability index": 3.93}
{"variant": "LRHSFQKIQREKTRWLNSGRGDEA", "protein stability index": 3.64}
{"variant": "LRHSFQKSQREKTRWLNSGRGDEA", "protein stability index": 3.63}
{"variant": "LRHSFQKCQREKTRWLNSGRGDEA", "protein stability index": 2.62}
{"variant": "LRHSFQKKQREKTRWLNSGRGDEA", "protein stability index": 3.35}
{"variant": "LRHSFQKRQREKTRWLNSGRGDEA", "protein stability index": 3.48}
{"variant": "LRHSFQKMQREKTRWLNSGRGDEA", "protein stability index": 3.32}
{"variant": "LRHSFQKWQREKTRWLNSGRGDEA", "protein stability index": 2.08}
